# Measured values published in the RNAGym collection of RNA variant scans (doi:10.1073/pnas.2313332121).
# B1: TPR t1 (parent)
# chain: GACCAAUCUGCCCUCAGAGCUCGAGAACAUCUUCGGAUGCAGAGGAGGCAGGCUUCGGUGGCGCGAUAGCGCCAACGUCCUCAACCUCCAAUGCAUCCCACCACAUGAUGAUGCCUGAAGAGCCUUGGUUUUUUG
# Variants of: B1
# Assay: polymerase ribozyme fitness, log enrichment relative to wild type (log ratio); higher = more active; in vitro selection for triplet polymerase activity
# Summary of the method: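 One round of in vitro selection, in triplicate, was applied to PCR-built, transcribed mutant libraries of each subunit of a heterodimeric triplet polymerase ribozyme. The steps were annealing with a biotinylated primer, partner subunit and triplets, incubation frozen at −7 °C, gel excision of extended constructs, streptavidin-bead capture and RT-PCR. Fitness is the logarithm, base 2, of genotype enrichment over wild-type enrichment from inverse-variance-weighted replicate averages of Illumina-sequenced inputs and outputs, keeping genotypes with ≥10 input reads and ≥1 read per output.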
row,Variant,polymerase ribozyme fitness (log ratio)
1,C20U U112A,0.887
2,C20U U112C,0.258
3,C20U U129A,-2.67
4,U21A A26G C40G C49A,-3.04
5,U21A A27C U32G G71A U112C,-5.9
6,U21A A27C U78G A84U C114A,-6.87
7,U21A A29C,-3.14
8,U21A A41C A90C G93A,-4.16
9,U21A A50C,-0.532
10,U21A C40G U125A,-1.07
11,U21A C49A C73A C115A U130G,0.139
12,U21A C53G C64U U106C,-0.936
13,U21A C53G U54G U87A,-4.55
14,U21A C53U C85U,-2.21
15,U21A C56G C73A C99G G120A U131C,-7.97
16,U21A C62U U92C U116C A119G,0.3
17,U21A C72G A75U C85U,-1.63
18,U21A C76U,-0.123
19,U21A G39U,-1.5
20,U21A G39U C62A,-2.62
21,U21A G39U G48A A74U U78G,-2.09
22,U21A G45A U59G G71A,-4.25
23,U21A G57U C85U G120U,-2.48
24,U21A G60A A90G,-0.182

row,Variant,polymerase ribozyme fitness (log ratio)
1,U21A G60U,-0.289
2,U21A G60U A90G,0.0218
3,U21A G63C,-0.995
4,U21A G71A C88U G93A,-2.14
5,U21A G117U,-1.55
6,U21A G135U,-0.915
7,U21A U38A G42A G44A U55G,-2.99
8,U21A U106A U132A,-0.182
9,U21A U130A,-0.5
10,U21A U130G,0.0378
11,U21C A27G C123G,-0.817
12,U21C A27U G36C A111U,-4.98
13,U21C A29U A84C U112A A119G G120C,-0.885
14,U21C A37C U81A,-3.15
15,U21C A37G C62A G117A,-3.01
16,U21C A41G G44A C56U C98U U112A,-1.55
17,U21C A41U G120A,-0.65
18,U21C A74U G120A,-0.17
19,U21C A84C C124G U131C,1.43
20,U21C A90C,-1.17
21,U21C C22A A43C,-4.05
22,U21C C22A C88U,-4.68
23,U21C C22A C101G G110A,-6.05
24,U21C C22G C34A C49A A84G C123U U125G U133C,-4.3

row,Variant,polymerase ribozyme fitness (log ratio)
1,U21C C28U C72U,-1.89
2,U21C C28U C101G G110C,-5.65
3,U21C C56A C70U G110U,-6.01
4,U21C C70U,-0.476
5,U21C C101A,-0.445
6,U21C G35C C73G A83C,-5.87
7,U21C G39U C56U C101U U112A,-0.219
8,U21C G42A U109A G117C,-7.38
9,U21C G61C C85A A95U,-4.53
10,U21C G113C,-1.14
11,U21C U54A C64A U78C G93A A111C,-6.03
12,U21C U55G U59G G71U C115G,-4.57
13,U21C U92G U96G A100C C124G,-5.43
14,U21C U96G C114U,-1.48
15,U21G A24G,-2.02
16,U21G A37C G44U,-3.59
17,U21G A41U G60C C80U U92C C97A A121U,-8.22
18,U21G A46C C49G,-3.41
19,U21G A66G C73A C94A,-4.63
20,U21G A84U C114A,-1.88
21,U21G C31U U78C C85A U112G,-5.44
22,U21G C53U C64U C79A,-3.11
23,U21G C53U C123G,0.377
24,U21G C56U,-1.08

row,Variant,polymerase ribozyme fitness (log ratio)
1,U21G C56U A111G U112G,-0.871
2,U21G C62A C124A U131A,-1.77
3,U21G C73U,-1.84
4,U21G G23U A27G A83C U112G,-7.42
5,U21G G36A,-2.46
6,U21G G42A A121G,-3.11
7,U21G G47A C114A C123G U125A,-1.52
8,U21G G60A G63C U78A C115U A119U U130A,-4.71
9,U21G G61C U87A U133G G135U,-3.09
10,U21G G61U G120U C123A,-1.78
11,U21G U59A A83U C123U U131C,-0.796
12,U21G U87A U133G G135U,-1.41
13,C22A A26G G39A G63C C99A C115G,-4.89
14,C22A A26U A27U C76U A95G G110A,-6.96
15,C22A A27C C56U C114A U125A,-4.58
16,C22A A27G C85G A100C C101U G120C G127A,-6.82
17,C22A A29G,-4.8
18,C22A A41U A90U A121G,-5.71
19,C22A A74G C97U,-4.56
20,C22A C31G G61A C102A C123G,-7.56
21,C22A C31G G71U U92C G93A C114U,-6.77
22,C22A C34G,-6.64
23,C22A C49U,-6.04
24,C22A C53A C94U G110U,-6.9

row,Variant,polymerase ribozyme fitness (log ratio)
1,C22A C53A G110C U131A,-5.4
2,C22A C73A G120A,-4.58
3,C22A C76U,-4.72
4,C22A G36A C56U,-5.8
5,C22A G42U G71U G113C,-5.64
6,C22A G44C,-4.8
7,C22A G48A G57U C70A A83G A91U C115A,-7.04
8,C22A G51C C72A,-6.53
9,C22A G52A,-4.45
10,C22A G61A A83G U96A C114A,-5.1
11,C22A G61U,-5.05
12,C22A G63U C101U,-6.16
13,C22A G71U,-5.61
14,C22A G120U,-4.24
15,C22A G120U U131A,-4.18
16,C22A U81C,-5.67
17,C22A U96G,-4.9
18,C22A U112A C114G,-1.84
19,C22G A26G C56G A75G,-5.33
20,C22G A27U C88U A121U,-2.51
21,C22G A29C G110U,-4.24
22,C22G A29U G69C C89A G110U,-5.19
23,C22G A37C U92C G120C,-4.95
24,C22G A41U G93U,-5.01

row,Variant,polymerase ribozyme fitness (log ratio)
1,C22G A43U,-3.99
2,C22G A83C,-3.33
3,C22G A84G,-4.29
4,C22G A90U U106A A111U,-3.25
5,C22G C28U A37U G48A G71A G110C,-5.6
6,C22G C34U G60U C94A C97U C98G G113U,-6.85
7,C22G C49G,-3.79
8,C22G C56A C73U,-4.49
9,C22G C56G C86U C124U,-3.03
10,C22G C56U A105U U112C,-2.05
11,C22G C72G C124A,-2.22
12,C22G C80A C101U C124A,-3.81
13,C22G C80U,-4.33
14,C22G C82A C94G A111U,-4.76
15,C22G C86G G110U A121U,-3.31
16,C22G C97A,-5.26
17,C22G C101A,-3.82
18,C22G G35C C64U,-6.13
19,C22G G35U A121C U132C,-4.9
20,C22G G36C,-3.09
21,C22G G42C,-3.87
22,C22G G45A,-3.31
23,C22G G47C U59C U92G C97A A111G,-6.83
24,C22G G47U A111C,-5.82

row,Variant,polymerase ribozyme fitness (log ratio)
1,C22G G48A,-3.33
2,C22G G52C C79U,-4.14
3,C22G G57C C89A A95G A111U A121U,-4.42
4,C22G G58C,-2.94
5,C22G G61A C86U C123A,-4.09
6,C22G G71U,-3.63
7,C22G G93U,-3.03
8,C22G U32G C49A G61U U87C,-4.78
9,C22G U38G,-4.45
10,C22G U78A U87A C88A C102A,-5.54
11,C22G U112A A118U,-1.75
12,C22U A26U C53U G69C A119G,-6.14
13,C22U A27U G45C U54G C56G G63C A121U,-5.28
14,C22U A50C C102U C124G,-5.01
15,C22U A50C C124A,-3.54
16,C22U A74C C79U A121U,-2.29
17,C22U A90U U112G,-7.35
18,C22U A91U U112G,-6.06
19,C22U A105U,-6.8
20,C22U A121U,-2.45
21,C22U C56A C72A A83C U96A,-5.56
22,C22U C56G,-3.79
23,C22U C56G G60A,-5.5
